Measured values as given in PMC7235295, “Cytoplasmic TDP43 Binds microRNAs: New Disease Targets in Amyotrophic Lateral Sclerosis”.

target: TDP43 (natively folded full-length, ab224788) (UniProt Q13148 1-414); assay: ELISA (immobilized miRNA titration, EC50); 5 nM TDP43; AC/TG nonspecific oligo 1 ug/ml; EMSA: 14 mM Tris pH 8.0, 35 mM KCl, 14 mM NaCl, 1.4 mM MgCl2, 14% glycerol, 0.7 mM DTT, 30 min RT, 5 nM RNA, gel at 4 C; ELISA: 20 mM HEPES pH 7.5, 150 mM NaCl, 1.5 mM MgCl2, 0.05% Tween 20, 0.5 mM DTT, 1 ug/ml AC/TG oligo, 0.2% BSA, 12 h 4 C; details: protein: commercial; label: 3'-biotin; single strand
Sequence (Q13148 whole entry): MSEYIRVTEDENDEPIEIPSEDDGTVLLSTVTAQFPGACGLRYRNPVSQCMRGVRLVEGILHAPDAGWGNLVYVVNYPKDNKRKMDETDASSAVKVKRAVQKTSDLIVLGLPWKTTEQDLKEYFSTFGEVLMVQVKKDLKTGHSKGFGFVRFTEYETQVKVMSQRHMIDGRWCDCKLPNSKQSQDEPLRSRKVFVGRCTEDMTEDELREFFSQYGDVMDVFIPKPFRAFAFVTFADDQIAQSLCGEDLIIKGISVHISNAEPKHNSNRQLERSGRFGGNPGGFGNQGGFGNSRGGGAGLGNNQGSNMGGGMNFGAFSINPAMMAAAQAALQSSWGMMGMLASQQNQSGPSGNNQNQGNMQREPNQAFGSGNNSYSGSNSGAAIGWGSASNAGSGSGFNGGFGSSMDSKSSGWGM

Binder	apparent K (half saturation) [nM]
UGAGUGUGUGUGUGUGAGUGUGU (ssRNA) [miR-574-5p (ELISA)]	2.84
AAUGGCGCCACUAGGGUUGUG (ssRNA) [miR-652-3p]	6.41
UUCCCUUUGUCAUCCUAUGCCU (ssRNA) [miR-204-5p]	37.7
